According to patent publication US10006080B2, “High-selectivity contact activation inhibitor based on infestin-4” (OBSCHESTVO S OGRANICHENNOY OTVETSTVENNOSTYU …, priority 2013, dated 2018):
Blank lines part the entries; values can stand above or below the molecule they belong to. No end group written: not given here.

Tests used:
fXIa = target: T1, fXIa (Homo sapiens, UniProt P03951); assay: Chromogenic test of protease inhibition in buffer, fXIa (substrate S-2366); assay type: biochemical; details: buffer solution, summary of Table 2
T1 construct: factor XI into its active form, factor XIa (fXIa)
Experimental: In order to assess selectivity of the fXIIa inhibition by the polypeptide comprising the sequence of the infestin-4 mutant MutB, its inhibitory activity in buffer solution against the purified coagulation factors was determined. The polypeptide's activity was compared with the known fXIIa inhibitors: CTI, infestin-4, infestin-4-based mutant Mut15, LCTI-III. […] The standard deviation amounted to about 50% of the average value; each value was measured by performing 2-3 repeats.
(§1) To determine the inhibition activity of such proteins as MutB, CTI, Inf4, Mut15, and LCTI-III as related to different coagulation proteases in a buffer, the chromogenic test was used: the mixture of protease and inhibitor was incubated in the wells of the plate for 15 minutes at 37° C., after which the chromogenic substrate solution was added to the mixture, and the protease activity was measured as the rate of chromogenic product formation at 37° C.
(§2) Chromogenic substrates included a p-nitroanilide group cleaved by the corresponding proteases. After cleavage of the p-nitroanilide group from the substrate molecule, the group absorption spectrum changes, and the change of concentration of such product within time can be detected at the light wavelength of 405 nm using a plate spectrophotometer. To build a dependence curve of the protease activity from the inhibitor concentration, different inhibitor concentrations were added into several samples with the same protease concentration. After that, the inhibitor concentration able to decrease the protease activity by 50% (IC50) was determined. The inhibition constant Ki was calculated using the Cheng-Prusoff equation (Ki=IC50/(1+S/KM)), where S is the initial substrate concentration, KM is the Michaelis-Menten constant of the substrate to the protease.
Native infestin-4 and its mutants MutB and Mut15 used here were fusion proteins with thioredoxin I E. coli containing polyhisticline clusters. […]

[1] = test system: contact-activated coagulation; assay: APTT test in platelet free plasma of a healthy donor (kaolin-cephalin activation); assay type: biochemical, human; details: 10 μM inhibitor in PFP; 45 sec without inhibitor
Experimental: The assessment of activity of the polypeptide comprising the sequence of an infestin-4 mutant MutB by its inhibition of the contact-activated coagulation shall be considered further with a reference to FIG. 1. Native infestin-4 and mutants MutB and Mut15 were added into 3 separate samples of platelet free plasma (PFP) of a healthy donor, with subsequent measuring time of contact-activated clotting in the APTT test.
Blood plasma from healthy donors was processed according to standard protocols of blood collection for coagulation assays (Collection, Transport, and Processing of Blood Specimens for Testing Plasma-Based Coagulation Assays and Molecular Hemostasis Assays; Approved Guideline Fifth Edition by Clinical and Laboratory Standards Institute (CLSI) H21-A5 Vol. 28 No. 5). 0.38% sodium citrate was added into blood to block the calcium ions.
The APTT test was administered using the reagent kits “Coagulo-test” (Scientific-production association Renam, Moscow, Russia) and different concentrations of the following contact activation inhibitors: native infestin-4, MutB, and Mut15. To do that, 50 microliters of blood plasma from a healthy donor were mixed with 5.6 microliters of a 10× solution of different inhibitor concentrations and incubated for 15 minutes at 37° C. Then, according to the “Coagulo-test” manual, 25 microliters of the mixture were transferred into the cuvette of the coagulometer Helena-C2, with addition of 25 microliters of kaolin-cephalin mixture activating fXII in blood plasma. After incubation at 37° C. for 3 minutes, 25 microliters of the calcium chloride solution in the initial concentration of 25 mM was added, and the time of fibrin clot formation in the coagulometer cuvette was determined photometrically.
APTT dependences on concentrations of native infestin-4, MutB and Mut15 obtained in the same way as in Example 1, are shown on FIG. 1.

fXa [2] = target: fXa (Homo sapiens, UniProt P00742); details: Campos et al. 2004, FEBS Lett. 577:512-516; read-out: inhibition constant Ki against fXa; cited from earlier work
Chain of fXa (Homo sapiens, UniProt P00742) (P00742 235-488 limits assumed): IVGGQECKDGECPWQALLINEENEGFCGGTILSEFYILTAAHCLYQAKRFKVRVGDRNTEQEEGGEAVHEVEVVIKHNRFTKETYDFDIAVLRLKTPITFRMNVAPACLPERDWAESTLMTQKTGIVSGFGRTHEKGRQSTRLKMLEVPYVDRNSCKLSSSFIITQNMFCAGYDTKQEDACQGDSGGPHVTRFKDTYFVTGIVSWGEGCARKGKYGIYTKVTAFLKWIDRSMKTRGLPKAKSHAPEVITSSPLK
Chain of fXa (Homo sapiens, UniProt P00742) (P00742 41-179 partner limits assumed): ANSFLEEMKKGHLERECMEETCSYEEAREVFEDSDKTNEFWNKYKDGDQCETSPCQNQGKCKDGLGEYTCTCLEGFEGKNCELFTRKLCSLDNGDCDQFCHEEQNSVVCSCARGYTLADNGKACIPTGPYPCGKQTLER

fXIIa = details: without affecting hemostasis parameters; cited from earlier work
factor XIIa = target: T2, factor XIIa (UniProt P00748 20-615, limits assumed); assay: chromogenic test (S-2302), IC50 converted by Cheng-Prusoff
T2 construct: also called fXIIa
T2 sequence (looked up): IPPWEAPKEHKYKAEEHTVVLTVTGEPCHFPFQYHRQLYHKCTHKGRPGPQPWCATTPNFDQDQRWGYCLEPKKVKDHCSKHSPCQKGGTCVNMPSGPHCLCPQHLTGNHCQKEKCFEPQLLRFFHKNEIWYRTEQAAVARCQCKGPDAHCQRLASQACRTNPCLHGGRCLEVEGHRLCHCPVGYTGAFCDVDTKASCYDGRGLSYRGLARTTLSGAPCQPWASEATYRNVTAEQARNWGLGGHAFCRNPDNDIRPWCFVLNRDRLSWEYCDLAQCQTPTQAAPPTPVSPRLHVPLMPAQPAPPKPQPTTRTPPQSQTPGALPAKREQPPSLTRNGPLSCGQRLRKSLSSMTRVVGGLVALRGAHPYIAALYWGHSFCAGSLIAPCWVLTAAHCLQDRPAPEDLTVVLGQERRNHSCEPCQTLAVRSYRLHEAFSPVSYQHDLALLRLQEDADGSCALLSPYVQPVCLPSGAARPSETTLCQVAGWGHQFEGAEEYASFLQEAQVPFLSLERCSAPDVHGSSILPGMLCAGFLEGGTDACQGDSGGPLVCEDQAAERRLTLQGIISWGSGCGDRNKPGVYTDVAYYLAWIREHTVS
Experimental: as §1, §2

fXa [3] = target: T3, fXa (UniProt P00742 41-179; P00742 235-488, limits assumed); assay: chromogenic test (S-2765), IC50 converted by Cheng-Prusoff
T3 construct: also called factor Xa
T3 sequence (P00742 41-179 limits assumed, form in doubt, chain 1 of 2): as the sequence (P00742 41-179 partner limits assumed) above
T3 sequence (P00742 235-488 limits assumed, form in doubt, chain 2 of 2): as the sequence (P00742 235-488 limits assumed) above
Experimental: as §1, §2

factor XIa = target: T4, factor XIa (UniProt P03951 19-625); assay: chromogenic test (S-2366), IC50 converted by Cheng-Prusoff
T4 construct: also called fXIa
Experimental: as §1, §2

B1: native infestin-4, fusion protein with thioredoxin I E. coli containing polyhistidine clusters (other)
chain: EVRNPCACFRNYVPVCGSDGKTYGNPCMLNCAAQTKVPGLKLVHEGRCQRSNVEQF
notes: It says MutB differs from it at positions 9, 12 and 14 only; also called Inf4; not shown: thioredoxin I of E. coli, fusion partner; polyhistidine clusters
- Ki (factor XIIa): 1 nM
- Ki (fXa [3]): 2000 nM

Molecule: RICPRILMECSSDSDCLAECICLENGFCG (Chemically synthesised) [Luffa cylindrica trypsin inhibitor, LCTI-III]
- Ki (factor XIIa): 15 nM
- Ki (factor XIa): 30000 nM

More lines, main results first:

- inhibition of fXIa (in words) (fXIa): do not inhibit
Molecule: Inf4: domain 4 of the protein infestin from the midgut of Triatoma infestans, Kazal-type fXIIa inhibitor; PDB 2ERW (EVRNPCACFRNYVPVCGSDGKTYGNPCMLNCAAQTKVPGLKLVHEGRCQRSNVEQF; left off: large carriers; small tags and cut ends) [reference compound]
- APTT [1]: 120 s
- Ki (fXa [2]): 53 nM
- effect in the thrombosis model in vivo (fXIIa): prevents vascular occlusion

- Ki (factor XIIa): 1 nM
B2: infestin-4 mutant MutB, fusion protein with thioredoxin I E. coli containing polyhistidine clusters (other, not shown: large carriers; small tags and cut ends)
chain: EVRNPCACTRNFVAVCGSDGKTYGNPCMLNCAAQTKVPGLKLVHEGRCQRSNVEQF
modifications: cysteine pairing not given here; also: fusion with thioredoxin I and polyhistidine clusters, not given here
